Assay results as given in PMC11806408 (2025).

Molecular target: fibrillin‐1 fragment start‐EGF4 (UniProt P35555 45-287)
Assay: SPR

fibrillin‐1 fragment start‐EGF4, sequence (P35555 45-287): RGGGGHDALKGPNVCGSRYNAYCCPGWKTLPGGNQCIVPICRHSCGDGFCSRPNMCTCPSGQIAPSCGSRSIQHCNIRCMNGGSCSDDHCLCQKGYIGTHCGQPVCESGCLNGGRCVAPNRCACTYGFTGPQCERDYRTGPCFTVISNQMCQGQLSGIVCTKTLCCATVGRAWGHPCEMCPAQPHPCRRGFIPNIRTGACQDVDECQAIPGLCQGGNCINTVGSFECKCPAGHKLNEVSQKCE

B1: processed BMP‐10 CPLX (tag‐free, HEK293) (complex)
chain 1: SPIMNLEQSPLEEDMSLFGDVFSEQDGVDFNTLLQSMKDEFLKTLNLSDIPTQDSAKVDPPEYMLELYNKFATDRTSMPSANIIRSFKNEDLFSQPVSFNGLRKYPLLFNVSIPHHEEVIMAELRLYTLVQRDRMIYDGVDRKITIFEVLESKGDNEGERNMLVLVSGEIYGTNSEWETFDVTDAIRRWQKSGSSTHQLEVHIESKHDEAEDASSGRLEIDTSAQNKHNPLLIVFSDDQSSDKERKEELNEMISHEQLPELDNLGLDSFSSGPGEEALLQMRSNIIYDSTARIRR
chain 2: NAKGNYCKRTPLYIDFKEIGWDSWIIAPPGYEAYECRGVCNYPLAEHLTPTKHAIIQALVHLKNSQKASKACCVPTKLEPISILYLDKGVVTYKFKYEGMAVSECGCR
modifications: N‐glycosylation
In the case of B1, the Kd is reported as 14.4 nM.
